PMC7954794, “Protein context shapes the specificity of SH3 domain-mediated interactions in vivo” (Nature Communications, 2021)

Test system: PPIs identified as affected by the SH3 domain deletions
Experiment: Liquid DHFR-PCA low-throughput validation of PPIs affected by SH3 deletion (Fig. S1D-E)
Type: cell-based, Saccharomyces cerevisiae
Conditions: label = prey, liquid DHFR-PCA, prey _1 = lost, _2 = gained in screen
How it was run: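 Yeast diploids from DHFR-PCA mating grown 48 h in synthetic complete MSG medium pH 6.0 with NAT and HPH, normalized to 1 OD and diluted to 0.1 OD in liquid PCA selection medium. Growth followed by OD every 15 min for 72 h at 30 °C.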

B1: YJR076C_1 (protein, UniProt P32458 2-415, looked up)
Cell division control protein …: SGIIDASSALRKRKHLKRGITFTVMIVGQSGSGRSTFINTLCGQQVVDTSTTILLPTDTSTEIDLQLREETVELEDDEGVKIQLNIIDTPGFGDSLDNSPSFEIISDYIRHQYDEILLEESRVRRNPRFKDGRVHCCLYLINPTGHGLKEIDVEFIRQLGSLVNIIPVISKSDSLTRDELKLNKKLIMEDIDRWNLPIYNFPFDEDEISDEDYETNMYLRTLLPFAIIGSNEVYEMGGDVGTIRGRKYPWGILDVEDSSISDFVILRNALLISHLHDLKNYTHEILYERYRTEALSGESVAAESIRPNLTKLNGSSSSSTTTRRNTNPFKQSNNINNDVLNPASDMHGQSTGENNETYMTREEQIRLEEERLKAFEERVQQELLLKRQELLQREKELREIEARLEKEAKIKQEE
Ratio (Deletedscore / WTscore) (bait BEM1-2): 0.6782
Ratio (Deletedscore / WTscore) (bait MYO3): 0.8182
Ratio (Deletedscore / WTscore) (bait MYO5): 0.9436
Ratio (Deletedscore / WTscore) (bait RVS167): 1.148

B2: YDR166C_1 (protein, UniProt P89102 1-971, looked up)
Exocyst complex component SEC5: MDRFQIGDEQLLRFYQLKTINPTHSWAQDSSKLNNEEATSNELGVETSFDILKDFKYGNQISIDKESRAYLNDESLSYIRDPLNGQEMSKELQHLPNDSMRLNYLVNSKQFNVKAFLRDMHKQDSFNDLNNSLDRLDSDIQDQSIHLKQLVGKNFTKYVKIKNKLDQIYKEFDEKTNEKNQCDSPKENQINVESLNKKVDEVIRTTTFKLKPLMDNYQKILNYQATKKFIELNKFYFNLPKSLKRCLTNNDFNEFIIEYSKGLTLRRRFNQSSDASQSLVIKRIWTQIENLLVTYKDLIWNSLINSNFNIDQPQETILSLFSKLLNLENFINNNQRESESGNKNTTSSSNENPILRWMSIKMNGFQNELNELSGHMISKIIHSQRLILQNNTNQDKSQGCVELSYYLKINQLFQIISDTGKDSEGLKSTVEPNKVNTISGTSYLNLNCQPSSQGLTDSPTIIEMWLLILKYINDLWKICDQFIEFWEHIEKFLDGTYQNSIINEKRKENILIGDSNIIESYQKSLILKEEQINEVRLKGEEFITSVSQNLISFFTSSQSSLPSSLKDSTGDITRSNKDSGSPLDYGFIPPNCNGLSCLRYLPKIVEPILKFSTELAQLNITTNGITICRNTLSTIINRCVGAISSTKLRDISNFYQLENWQVYETVTFSSKSQDSSKNLTFEYGVTQFPEIVTSFQEVSIKTTRDLLFAYEKLPIINGISVVSYPSKQLLTGIEIQQIISMEAVLEAILKNAAKDKDNPRNSHTILTLTNLQYFRECAFPNILQYFDDAFEWNLASKNLELFSLLSKMESSIFGNYLSDLKINLRDTLEEKFHEINWPMYTSNSFRVGDYIIEALMILIVVHSECFRIGPQLIHKILIETQIFIARYLFEAFKPYVGNLSNDGSLQIIVDLEFFQKVMGPLLEKDTEATLRACLQNCFQNDTNRLQKCINEINPIVSANLKRTAIQFAAFS
Ratio (Deletedscore / WTscore) (bait BEM1-2): 0.5345
Ratio (Deletedscore / WTscore) (bait BOI2): 0.7084

B3: YER114C_1 (protein, UniProt P39969 1-1040, looked up)
BEM1-interacting protein 2: MSNDREVPTLSQLNTTVSRDKDVSDTLSPDFDSKGSATGRDGGNFPMYIAINEYFKRMEDELDMKPGDKIKVITDDEEYKDGWYFGRNLRTNEEGLYPVVFTQKITVEKAPTLMRAKSTKRIYSPLTNEDPLLSSTFISENDSNSELPTPQPIETAASISRTANGKIERNLSLKNTMSDIDNALLEFKDDSIGPPDRFINSGRDEEHSITHETILSATDGLDVVESNSKPTTSSSTGFLNGDLENQATLINGIDTTKLNPVEAEFWSPEEITAYFIMEGYDVQSASRFQKHKISGKILLELELVHLKELDINSFGTRFEIFKEIEKIKEAIRTNGRSLNRASKTNNANIYNQLMPPANVDQRASYRGHVRKTSQSLEDLPSQQNFIPTPRNTRNSSASKHRPKSLVFDSQEANANIAPDVQIPQVVEEMAGNENLFVSPRRAPKPPSYPSPAQPPKSPLLNNTRTSPSPAQLYSWQSPTLSFSGPKRTSYIDQYSSSDSNFNSRSALPKNNQGGGKALSPIPSPTRNSVRNEDSEGKLTSSSKRNSVPYYGYAPESSSDRKSSCSSHEEEQFQETMNTFERPTSSIYADGSTIASISNDKLAHEKEGKKKPTRHSSSLSSKSKSDSRRNSSLKRSSSASRTSSFKKSSFMLSPFRQQFTDNAARSSSPEENPITSMPSEKNSSPIVDKKSSKKSRSKRRSVSAKEAEIFTETVKDDKNKRSASEAIKGETLKGKSLRQMTARPVAKKKQTSAFIEGLRSISVKEAMKDADFSGWMSKKGSGAMSTWKTRFFTLHGTRLSYFSSTTDTRERGLIDITAHRVVPAKEDDKLVSLYAASTGKGRYCFKLLPPQPGSKKGLTFTQPRTHYFAVDNKEEMRGWMAALIKTTIDIDTSVPIISSYTTPTVSLSKAQEMLAEAREETKLREQQMLENEEDEDQFLWDQQQLQQQQHDNNQGQADRTISASTQRTSDEDNTISTPNLSSANNTTIGSNGFSSPFLLASGLLSPGVARNSSMRGTEKKGKFSTEEDYFGDNSKHKTDKI
Ratio (Deletedscore / WTscore) (bait BEM1-2): 0.3794

B4: YJL151C_2 (protein, UniProt P14359 1-133, looked up)
Protein SNA3: MDRDHINDHDHRMSYSINKDDLLLMVLAVFIPPVAVWKRKGMFNRDTLLNLLLFLLLFFPAIIHACYVVYETSSERSYDLSRRHATAPAVDRDLEAHPAEESQAQPPAYDEDDEAGADVPLMDNKQQLSSGRT
Ratio (Deletedscore / WTscore) (bait ABP1): 1.204
Ratio (Deletedscore / WTscore) (bait BZZ1-2): 1.485

B5: YLR314C_1 (protein, UniProt P32457 2-520, looked up)
Cell division control protein …: SLKEEQVSIKQDPEQEERQHDQFNDVQIKQESQDHDGVDSQYTNGTQNDDSERFEAAESDVKVEPGLGMGITSSQSEKGQVLPDQPEIKFIRRQINGYVGFANLPKQWHRRSIKNGFSFNLLCVGPDGIGKTTLMKTLFNNDDIEANLVKDYEEELANDQEEEEGQGEGHENQSQEQRHKVKIKSYESVIEENGVKLNLNVIDTEGFGDFLNNDQKSWDPIIKEIDSRFDQYLDAENKINRHSINDKRIHACLYFIEPTGHYLKPLDLKFMQSVYEKCNLIPVIAKSDILTDEEILSFKKTIMNQLIQSNIELFKPPIYSNDDAENSHLSERLFSSLPYAVIGSNDIVENYSGNQVRGRSYPWGVIEVDNDNHSDFNLLKNLLIKQFMEELKERTSKILYENYRSSKLAKLGIKQDNSVFKEFDPISKQQEEKTLHEAKLAKLEIEMKTVFQQKVSEKEKKLQKSETELFARHKEMKEKLTKQLKALEDKKKQLELSINSASPNVNHSPVPTKKKGFLR
Ratio (Deletedscore / WTscore) (bait BEM1-2): 0.9934
Ratio (Deletedscore / WTscore) (bait NBP2): 0.9977

B6: YMR109W_1 (protein, UniProt Q04439 1-1219, looked up)
Myosin-5: MAILKRGARKKVHQEPAKRSANIKKATFDSSKKKEVGVSDLTLLSKISDEAINENLKKRFLNATIYTYIGHVLISVNPFRDLGIYTDAVMNEYKGKNRLEVPPHVFAIAESMYYNMKSYNENQCVIISGESGAGKTEAAKRIMQYIAAASSTHTESIGKIKDMVLATNPLLESFGCAKTLRNNNSSRHGKYLEIKFNNQFEPCAGNITNYLLEKQRVVSQIKNERNFHIFYQFTKGASDAYRQTFGVQKPEQYVYTAAAGCISAETIDDLQDYQETLKAMRVIGLGQEEQDQIFRMLAAILWIGNVSFIENEEGNAQVRDTSVTDFVAYLLQIDSQLLIKSLVERIMETNHGMKRGSVYHVPLNIVQADAVRDALAKAIYNNLFDWIVSRVNKSLQAFPGAEKSIGILDIYGFEIFEHNSFEQICINYVNEKLQQIFIQLTLKSEQETYEREKIQWTPIKYFDNKVVCDLIEARRPPGIFAAMNDSVATAHADSNAADQAFAQRLNLFTTNPHFDLRSNKFVIKHYAGDVTYDIDGITDKNKDQLQKDLVELIGTTTNTFLATIFPDTVDRESKRRPPTAGDKIIKSANDLVETLSKAQPSYIRTIKPNETKSPNDYDDRQVLHQIKYLGLQENVRIRRAGFAYRQVFEKFVERFYLLSPHCSYAGDYTWQGDTLDAVKYILQDSSIPQQEYQLGVTSVFIKTPETLFALEHMRDRYWHNMAARIQRAWRRFLQRRIDAATKIQRTIRERKEGNKYEKLRDYGTKVLGGRKERRSMSLLGYRAFMGDYLSCNESKSKGAYIKRQVSIKEKVIFSIHGEALHTKFGRSAQRLKKTFLLTPTTLYIVGQTLVQNAMTYTQDYKIDVRNIQAVSLTNLQDDWVAIKLASSGQPDPLINTYFKTELITHLKRLNDKIQIKIGSAIEYQKKPGKLHSVKCQINESAPKYGDIYKSSTISVRRGNPPNSQVHKKPRKKSSISSGYHASSSQATRRPVSIAAAQHVPTAPASRHSKKPAPPPPGMQNKAATRRSVPNPASTLTASQSNARPSPPTAATRATPAATPAAAAMGSGRQANIPPPPPPPPPSSKPKEPMFEAAYDFPGSGSPSELPLKKGDVIYITREEPSGWSLGKLLDGSKEGWVPTAYMKPHSGNNNIPTPPQNRDVPKPVLNSVQHDNTSANVIPAAAQASLGDGLANALAARANKMRLESDDEEANEDEEEDDW
Ratio (Deletedscore / WTscore) (bait BEM1-1): 0.9175
Ratio (Deletedscore / WTscore) (bait BEM1-2): 0.7054
Ratio (Deletedscore / WTscore) (bait BOI2): 0.9032
Ratio (Deletedscore / WTscore) (bait HSE1): 0.9954
Ratio (Deletedscore / WTscore) (bait NBP2): 0.9518
Ratio (Deletedscore / WTscore) (bait PIN3): 0.6702

B7: YCR002C_1 (protein, UniProt P25342 1-322, looked up)
Cell division control protein …: MDPLSSVQPASYVGFDTITNQIEHRLLKKGFQFNIMVVGQSGLGKSTLINTLFASHLIDSATGDDISALPVTKTTEMKISTHTLVEDRVRLNINVIDTPGFGDFIDNSKAWEPIVKYIKEQHSQYLRKELTAQRERFITDTRVHAILYFLQPNGKELSRLDVEALKRLTEIANVIPVIGKSDTLTLDERTEFRELIQNEFEKYNFKIYPYDSEELTDEELELNRSVRSIIPFAVVGSENEIEINGETFRGRKTRWSAINVEDINQCDFVYLREFLIRTHLQDLIETTSYIHYEGFRARQLIALKENANSRSSAHMSSNAIQR
Ratio (Deletedscore / WTscore) (bait BEM1-2): 0.5157
Ratio (Deletedscore / WTscore) (bait BOI1): 0.9522
Ratio (Deletedscore / WTscore) (bait NBP2): 0.7856
Ratio (Deletedscore / WTscore) (bait RVS167): 0.8283
